From patent US11008365B2 (NATIONAL INSTITUTE OF ADVANCED INDUSTRIAL SCIENCE AND …, priority 2016, dated 2021)
“Also recorded” adds a separate entry of the source.

What was measured:
[1] = target: T1, CH1-CL domain forming a non-native three-dimensional structure (Homo sapiens, UniProt P01834+P01857); assay: SPR of synthetic peptides on immobilized acid-treated CH1-CL domain; format: binding; details: for Non-native CH1-CL domain (whether affinity was present or not): SPR Biacore T100, peptides 4-1 μM (FIG. 5), 50-1.6 μM (FIG. 6), 64-2 μM (FIG. 7); for affinity / binding response compared to AF.ab9: SPR, non-native CH1-CL domain immobilized, FIGS. 6 and 7
T1 construct: made in house; host or cells: Escherichia coli BL21(DE3)
Text: Here, the AF.ab9 body is a 16-residue polypeptide consisting of the 8-residue linker region and the 8-residue microprotein chignolin, and the AF.ab9 arm is a 10-residue polypeptide consisting of a region selected from the random amino acid sequences. The preparation of the polypeptides was entrusted to GL Biochem (Shanghai). […] The measurement conditions were in accordance with those in the paragraph 3).
The CH1-CL domain forming a non-native three-dimensional structure prepared by the same method as in the paragraph 3) was immobilized on a sensor chip CM5 (GE Healthcare) by amine coupling, and the binding thereof to AF.ab31, AF.ab9, and alanine substitution products was measured with Biacore T100 (FIGS. 6 and 7, Table 3).

human monoclonal IgG = assay: SPR of IgG (native or acid-treated) on immobilized AF.ab9; format: binding
Experimental: (§1) Preparation of the synthesized polypeptide was entrusted to GL Biochem (Shanghai). AF.ab9 was dissolved in a boric acid buffer solution (10 mM Borate-Na, 1 M NaCl, pH 8.5) and was immobilized on a sensor chip CM5 (GE Healthcare) by amine coupling.
(§2) Subsequently, human monoclonal IgG, Fab region, and Fc region having a native three-dimensional structure and a non-native three-dimensional structure were prepared. The Fab region and Fc region were prepared by subjecting human monoclonal IgG to papain digestion with Pierce (registered trademark) Fab Preparation Kit (Thermo Fisher Scientific Inc.) and then to purification by affinity chromatography using MabSelect SuRe (GE Healthcare), anion exchange chromatography using HiTrap DEAE (GE Healthcare), and gel filtration chromatography using Superdex 200 (GE Healthcare). The IgG, Fab region, and Fc region were each diluted to 5 μM and dialyzed against an acid buffer solution (50 mM NaH2PO4, 100 mM NaCl, pH 2.0) for 12 hours for accelerating acid denaturation and dialyzed against an HBS-T buffer solution for neutralization.
Subsequently, an example of evaluating the affinity of AF.ab9 for IgG treated with buffer solutions having different degrees of acidity will be described. IgG was dissolved in an HBS buffer solution (10 mM HEPES, 150 mM NaCl, pH 7.4) at a concentration of 5 μM. The acidity of a sodium phosphate buffer solution (50 mM NaH2PO4, 100 mM NaCl) as an acid buffer solution was adjusted to three degrees of pH 2.0, pH 3.0, and pH 4.0. An antibody was dialyzed against each of the buffer solutions for 12 hours and was then dialyzed against an HBS-T buffer solution for neutralization. The affinity of each of the resulting acid-treated IgG for AF.ab9 was measured by SPR (FIG. 4, Table 2). The SPR test was conducted in accordance with the conditions described above in this paragraph. […] Regarding the acid denaturation of the CH1-CL domain, it has been reported as the results of analysis by spectroscopic methods such as CD spectrum and fluorescence spectrum that a clear change in the three-dimensional structure of the CH1-CL domain occurs between pH 4.0 and pH 3.0 (Non Patent Literature 32).

Fc region = assay: SPR of Fc region (native or acid-treated) on immobilized AF.ab9; format: binding, human
Experimental: as §1, §2

Fab region = assay: SPR of Fab region (native or acid-treated) on immobilized AF.ab9; format: binding, human
Experimental: as §1, §2

Sequence | Non-native CH1-CL domain (whether affinity was present or not) [1] | affinity / binding response compared to AF.ab9 [1] | also measured
PNSGGGGSYDPETGTWAQEIRLILNW [AF.ab9 P17A] | Binding | the binding response decreased | 
PNSGGGGSYDPETGTWPQWITLTITY (Synthetic IgG binding peptide) [AF.ab31] | Binding | substantially equivalent | 
PNSGGGGSYDPETGTWPAEIRLILNW [AF.ab9 Q18A] | Binding |  | 
PNSGGGGSYDPETGTWPQEIRLILNW (Synthetic IgG binding peptide) [AF.ab9] | showed affinity; also recorded: Binding |  | affinity for AF.ab9: pH 2.0-treated IgG (human monoclonal IgG; IgG treated with acid buffer pH 2.0 for 12 hours, neutralized, 2-0.125 μM): strong binding response; also recorded: clear binding responses; affinity for AF.ab9: pH 3.0-treated IgG (human monoclonal IgG; IgG treated with acid buffer pH 3.0, neutralized, 2-0.125 μM): clear binding responses; affinity for AF.ab9: pH 4.0-treated IgG (human monoclonal IgG; IgG treated with acid buffer pH 4.0, neutralized, 2-0.125 μM): did not show a significant binding response; also recorded: No-binding; affinity for AF.ab9: Native IgG (human monoclonal IgG; acid-untreated IgG 2-0.125 μM, AF.ab9 immobilized on CM5): did not show a significant binding response; also recorded: No-binding; affinity for AF.ab9: pH 2.0-treated Fc (Fc region; Fc region treated with acid buffer pH 2.0, neutralized, 2-0.125 μM): No-binding; affinity for AF.ab9: Native Fc (Fc region; acid-untreated Fc region 2-0.125 μM): did not show a binding response; also recorded: No-binding; binding response to the acid-treated Fc region compared with that on the non-native structure of the Fab region (Fc region; pH 2.0-treated Fc versus pH 2.0-treated Fab, SPR): 1/100; affinity for AF.ab9: pH 2.0-treated Fab (Fab region; Fab region treated with acid buffer pH 2.0, neutralized, 2-0.125 μM): strong binding response; affinity for AF.ab9: Native Fab (Fab region; acid-untreated Fab region 2-0.125 μM): did not show a significant binding response; also recorded: No-binding
PQEIRLILNW (Synthetic IgG binding peptide) [AF.ab9 arm] | showed affinity; also recorded: Binding |  | 
PNSGGGGSYDPETGTWPQEIRLIANW [AF.ab9 L24A] | Binding | the binding response decreased | 
